According to article PMC10954480:

Biological target: 6x His-tagged RecB nuclease domain (RecB^928–1180) (Escherichia coli) (UniProt P08394)
Assay: pull-down

Chain of 6x His-tagged RecB nuclease domain (RecB^928–1180) (Escherichia coli) (P08394 928-1180): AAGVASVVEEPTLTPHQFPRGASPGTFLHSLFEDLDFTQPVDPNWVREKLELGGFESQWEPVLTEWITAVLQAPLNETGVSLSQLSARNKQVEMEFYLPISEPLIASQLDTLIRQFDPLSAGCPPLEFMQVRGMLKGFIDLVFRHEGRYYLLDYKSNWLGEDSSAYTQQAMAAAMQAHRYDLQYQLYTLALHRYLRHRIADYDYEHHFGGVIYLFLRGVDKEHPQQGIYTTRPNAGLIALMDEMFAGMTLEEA

stoichiometry N (moles RecB^hCD per mole RecB^n): 0.95
Substance: RecB^1–927CD, truncated RecBCD enzyme lacking the RecB nuclease domain, P08394 1-927; P07648 1-1122; P04993 1-608
